The experiment deals with T1, UNC-40 ECD (C. elegans, UniProt G5EF96 23-1082).
T1 sequence (looked up): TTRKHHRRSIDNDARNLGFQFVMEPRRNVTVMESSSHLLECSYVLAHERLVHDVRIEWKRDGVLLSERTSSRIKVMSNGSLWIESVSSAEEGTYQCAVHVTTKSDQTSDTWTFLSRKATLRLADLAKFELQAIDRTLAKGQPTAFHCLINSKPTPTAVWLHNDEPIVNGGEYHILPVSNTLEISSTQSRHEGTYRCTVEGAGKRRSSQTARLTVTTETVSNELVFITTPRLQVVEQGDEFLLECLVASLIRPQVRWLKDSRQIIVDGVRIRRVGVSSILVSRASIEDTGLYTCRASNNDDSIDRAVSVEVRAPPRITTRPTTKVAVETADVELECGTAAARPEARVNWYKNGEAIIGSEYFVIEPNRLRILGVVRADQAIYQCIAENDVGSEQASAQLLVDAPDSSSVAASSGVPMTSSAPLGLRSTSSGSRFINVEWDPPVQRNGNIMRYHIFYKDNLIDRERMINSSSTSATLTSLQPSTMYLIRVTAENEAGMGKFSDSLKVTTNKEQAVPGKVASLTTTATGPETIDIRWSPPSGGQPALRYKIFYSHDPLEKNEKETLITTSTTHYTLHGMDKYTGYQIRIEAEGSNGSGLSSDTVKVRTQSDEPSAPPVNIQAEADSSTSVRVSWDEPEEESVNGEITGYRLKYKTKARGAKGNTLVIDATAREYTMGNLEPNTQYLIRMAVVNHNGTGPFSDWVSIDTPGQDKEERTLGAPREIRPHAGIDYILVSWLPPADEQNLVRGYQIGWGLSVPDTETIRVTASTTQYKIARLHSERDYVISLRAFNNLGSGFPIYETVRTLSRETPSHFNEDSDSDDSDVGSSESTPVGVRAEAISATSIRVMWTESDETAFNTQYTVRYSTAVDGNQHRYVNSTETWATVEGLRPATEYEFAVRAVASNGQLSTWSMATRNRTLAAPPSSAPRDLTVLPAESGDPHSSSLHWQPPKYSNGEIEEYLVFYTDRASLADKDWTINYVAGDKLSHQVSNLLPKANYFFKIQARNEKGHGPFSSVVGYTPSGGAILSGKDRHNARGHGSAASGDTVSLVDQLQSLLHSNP
In words: SEC. (In general: SEC sorts molecules by how far they enter the pores of the column.)

The values below come from paper PMC10871540 (Science Advances, 2024).

B1: UNC-6ΔC (ligand)
chain: not shown
Turning to B1, the binding result is reported as “binds”.
